The values that follow come from US20070184523A1 (Genentech, published 2007).

One test concerns the target T1, CH3 Y407A cavity mutant (human, UniProt P01857-1 224-330 = IgG part, Y407A).
T1 construct: domain: CH3; Isolated CH3 domain secreted from E. coli; Positions follow Eu numbering; also called designed cavity mutant
The test is described as follows: calorimetry of a mixture of purified CH3 domains.

Test [1] concerns the target T2, CH3 T366S:L368A:Y407V cavity mutant (human, UniProt P01857-1 224-330 = IgG part, T366S; L368A; Y407V).
T2 construct: domain: CH3; Isolated CH3 domain secreted from E. coli; Positions follow Eu numbering; also called phage-selected cavity mutant
The test is described as follows: calorimetry of a 1:1 mixture of purified CH3 domains.

B1: CH3 T366W protuberance mutant (other, human, UniProt P01857-1 224-330, looked up, name in EU numbering)
chain: GQPREPQVYTLPPSRDELTKNQVSLWCLVKGFYPSDIAVEWESNGQPENNYKTTPPVLDSDGSFFLYSKLTVDKSRWQQGNVFSCSVMHEALHNHYTQKSLSLSPGK
notes: domain: CH3; Isolated CH3 domain secreted from E. coli (plasmid pAK19); Positions follow Eu numbering, not the UniProt entry
As for B1, the binding result (with CH3 Y407A cavity mutant; in test [1]) was “binds” each time.
